# Measurements as given in article PMC6746150, “Long-Term Local Injection of RAGE-Aptamer Suppresses the Growth of Malignant Melanoma in Nude Mice”.
# B1: RAGE-aptamer (XNA)
# DNA: CCTGATATGGTGTCACCGCCGCCTTAGTATTGGTGTCTAC
# modifications: phosphorothioate nucleotides at capital letters: ccTgATATggTgTcAccgccgccTTAgTATTggTgTcTAc (DNA)
# Biological target: V-domain RAGE (vRAGE) (human, UniProt Q15109 23-121)
# Experiment: QCM (27 MHz); vRAGE immobilized; N = 3; 27-MHz QCM, vRAGE immobilized on sensor; buffer, salt, pH and temperature not stated (as described previously, ref 16)
# Chain of V-domain RAGE (vRAGE) (Q15109 23-121): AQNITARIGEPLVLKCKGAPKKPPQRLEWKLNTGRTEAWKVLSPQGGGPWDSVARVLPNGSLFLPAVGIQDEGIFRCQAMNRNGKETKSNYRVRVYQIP
binder,measurement,value
B1,Kd,4.44 ± 0.56 nM
